Assay [1] concerns the target T1, Puromycin-sensitive aminopeptidase F433A mutant, with C-terminal polyhistidine sequence (human, UniProt P55786 1-919, F433A).
T1 construct: Human puromycin-sensitive aminopeptidase (PSA, NPEPPS), UniProt P55786, with F433A; also called PSA^F433A
Nature of the assay: competitive inhibition of enzyme activity (Dixon plots); apparent Ki from inhibition of Ala-4MβNA cleavage at increasing peptide concentrations; 20 mM HEPES pH 7.0, 2 mM BME, 37°C; 20 μM (PSA^wt) or 100 μM (PSA^F433A) Ala-4MβNA; triplicate. The settings on record: both partners purified.

For assay [2], the target named is T2, Puromycin-sensitive aminopeptidase, wild type, with C-terminal polyhistidine sequence (kinetic studies) (human, UniProt P55786 1-919).
T2 construct: Human puromycin-sensitive aminopeptidase (PSA, NPEPPS), UniProt P55786; also called PSA^wt; wild type PSA
T2 sequence (P55786 whole entry): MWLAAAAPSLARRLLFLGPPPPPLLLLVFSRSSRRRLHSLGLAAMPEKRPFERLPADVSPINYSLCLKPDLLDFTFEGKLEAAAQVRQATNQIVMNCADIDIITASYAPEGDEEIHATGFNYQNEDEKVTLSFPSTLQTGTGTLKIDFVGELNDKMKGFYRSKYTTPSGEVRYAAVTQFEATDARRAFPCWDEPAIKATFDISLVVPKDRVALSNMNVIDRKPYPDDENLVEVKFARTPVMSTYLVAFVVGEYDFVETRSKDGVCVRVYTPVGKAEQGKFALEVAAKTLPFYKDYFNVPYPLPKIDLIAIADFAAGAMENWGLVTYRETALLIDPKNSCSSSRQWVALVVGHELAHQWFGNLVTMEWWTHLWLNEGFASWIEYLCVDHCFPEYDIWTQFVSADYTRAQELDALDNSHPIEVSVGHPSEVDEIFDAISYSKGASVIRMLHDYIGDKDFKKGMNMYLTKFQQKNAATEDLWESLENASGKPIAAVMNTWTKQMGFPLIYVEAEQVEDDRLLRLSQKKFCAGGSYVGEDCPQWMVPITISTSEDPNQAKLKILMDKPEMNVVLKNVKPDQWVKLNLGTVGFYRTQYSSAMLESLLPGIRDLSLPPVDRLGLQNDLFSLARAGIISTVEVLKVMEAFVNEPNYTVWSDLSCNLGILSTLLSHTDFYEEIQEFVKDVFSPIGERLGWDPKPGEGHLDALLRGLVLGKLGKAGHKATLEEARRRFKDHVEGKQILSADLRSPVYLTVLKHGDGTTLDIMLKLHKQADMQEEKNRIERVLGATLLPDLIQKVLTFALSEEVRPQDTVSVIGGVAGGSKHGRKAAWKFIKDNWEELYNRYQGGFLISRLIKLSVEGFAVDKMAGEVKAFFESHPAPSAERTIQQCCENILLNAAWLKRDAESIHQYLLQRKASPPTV
The description is as above. Conditions: both partners purified.

Consider one molecule from PMC10343166, “Structure of puromycin-sensitive aminopeptidase and polyglutamine binding” (PLOS ONE, 2023).

T1 sequence (P55786 whole entry F433A): as the sequence (P55786 whole entry) above, with F433A counted along it

B1: Polyglutamine peptide Lys2Gln15Lys2 (peptide)
peptide: KKQQQQQQQQQQQQQQQKK
notes: Printed as Lys2Gln15Lys2 (19-mer); In PDB 8SW1 only 6 residues are modelled, deposited as polyalanine; also called PQ; PQ peptide; source: synthetic peptide, bought: Peptidogenic Research and Co; purified (TFA/hexafluoro-2-propanol, centrifugation)
Turning to B1, the figures for the Ki in assay [1] and in assay [2] were 4.9 µM and 1.3 µM, respectively.
